Reference: publication PMC6168351 (Molecular cancer therapeutics, 2018)

Target: Human GPA33 (Novoprotein), recombinant (Homo sapiens (Human)., UniProt Q99795)
Assay: SPR

Human GPA33 (Novoprotein), recombinant, sequence (Q99795 22-235): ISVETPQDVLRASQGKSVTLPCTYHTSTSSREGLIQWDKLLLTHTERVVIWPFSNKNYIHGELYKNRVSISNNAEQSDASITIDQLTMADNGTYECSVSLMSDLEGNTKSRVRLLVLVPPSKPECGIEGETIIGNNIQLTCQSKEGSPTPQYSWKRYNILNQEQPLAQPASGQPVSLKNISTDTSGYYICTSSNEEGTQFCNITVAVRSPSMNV

B1: huA33 (humanized A33 antibody, selected clone), IgG1 (antibody, V domains shown)
VH: EVQLVESGGGLVKPGGSLRLSCAASGFAFSTYDMSWVRQAPGKRLEWVATISSGGSYTYYLDSVKGRFTISRDNAKNSLYLQMNSLRAEDTAVYYCAPTTVVPFAYWGQGTLVTVSS
VL: DIQMTQSQSSLSTSVGDRVTITCKASQNVRTVVAWYQQKPGKSPKTLIYLASNRHTGVPSRFSGSGSGTEFTLTISNVQPEDFADYFCLQHWSYPLTFGSGTKLEIK
Question: How did the Kd turn out when B1 was run?
Answer: 130 pM
